One test addresses T1, EBV gH/gL (Epstein-Barr virus, UniProt P03212+P03231).
T1 construct: expressed in transfected cells; host or cells: CHO cells
Nature of the test: Flow cytometry of gH/gL-expressing CHO cells. Type of test: binding. The source says: FIGS. 10A-10B show the comparison of murine E1D1 (mE1D1) and humanized E1D1 (hE1D1). FIG. 10A: Sequence comparison of mE1D1 and hE1D1. Alignment of heavy chain (i) and light chain (ii) variable region amino acid sequences by the Clustal W. Murine E1D1 heavy chain and light chain AA sequences are represented by SEQ ID NOs: 183 and 184, respectively, and humanized E1D1 heavy chain and light chain AA sequences are represented by SEQ ID NOs: 185 and 186, respectively. Regions of identical sequence are represented by *. Regions of similarity are represented by :. FIG. 10B: Flow cytometric analysis of mE1D1 and hE1D1 gH/gL specificity. CHO wild type cells and gH/gL-expressing CHO cells were stained with mE1 D1 and hE1 D1, followed by secondary goat anti-mouse or anti-human conjugated to AF488. Unstained cells and cells stained with secondary goat anti-mouse or anti-human conjugated to AF488 alone, were used as negative controls.
Similar to Example 4, humanized E1D1 antibody was produced and its specificity was compared to mouse E1D1 by flow cytometric analysis (FIG. 10).
Flow cytometric analysis of gp350 and gH/gL specificity was performed. CHO wild type cells and gp350 or gH/gL-expressing CHO cells were stained with primary antibodies, followed by secondary goat anti-mouse or anti-human conjugated to AF488. […]
For orientation: In flow cytometry, cells or beads pass a laser one at a time.

Test [1] concerns the target T2, purified EBV gp350/220 (recombinant EBV gp350 ectodomain) (Epstein-Barr virus, UniProt P03200).
T2 construct: purified EBV gp350 ectodomain protein (AA 4-863); purchased Immune Technology Corporation
Kind of test: Indirect ELISA on recombinant EBV gp350 ectodomain. The class given is binding. The conditions noted are these: purified antibodies 10 μg/ml. Here is the method:
Briefly, immunoplates (Costar 3590; Corning Incorporated) were coated with 50 μl of 0.5 μg/ml recombinant EBV gp350 ectodomain (Immune Technology Corporation) diluted in 1× phosphate buffered saline (PBS, pH 7.4) and incubated overnight at 4° C. After washing three times with 1×PBS containing 0.05% (v/v) Tween 20 (washing buffer), plates were blocked with 100 μl washing buffer containing 2% (w/v) bovine serum albumin (BSA) (blocking buffer) then incubated for 1 h at room temperature and washed as above. 100 μl of hybridoma supernatant or 50 μl of 10 μg/ml purified mAbs was added to each well (in triplicate) and incubated for 2 h at room temperature. […] The plates were washed as described above, followed by incubation with 50 μl of goat anti-mouse IgG HRP-conjugated secondary antibody (1:2,000 diluted in 1×PBS) at room temperature for 1 h. The plates were washed again and 100 μl of chromogenic substrate 2,2′-azino-bis (3-ethylbenzothiazoline-6-sulphonic acid) (ABTS, Life Science Technologies) was added. The reaction was stopped using 100 μl of ABTS peroxidase stop solution containing 5% sodium dodecyl sulfate (SDS) in water. The absorbance was read at an optical density of 405 nm using an ELISA reader (Molecular Devices). All experiments were performed in triplicate and confirmed in three independent experiments.
ELISA binding of anti-gp350 and anti-gH/gL to soluble gp350 and gH/gL proteins was performed. Soluble EBV gp350 and gH/gL proteins were used as the target antigen at 0.5 μg/ml. 1× phosphate buffered saline (PBS) was used as negative (not shown) control. Bound antibodies were detected using HRP-conjugated anti-mouse or anti-human IgG (1:2,000).
For orientation: ELISA stands for enzyme-linked immunosorbent assay.

For test [2], the target named is T3, EBV gp350 stably expressed on CHO cells (Epstein-Barr virus, UniProt P03200).
T3 construct: stably co-transfected with full-length pCAGGS-gp350/220 and pCI-puro vector; expressed in transfected cells; host or cells: CHO cells
Nature of the test: Epitope mapping by competitive cell binding assay with biotinylated mAbs. The conditions noted are these: biotinylated antibodies. Here is the method:
To evaluate conformation epitope mapping of the selected mAbs, competitive binding assays were conducted using biotinylated mAbs. A one-step antibody biotinylation kit (MACS Miltenyi Biotec) was used to biotinylate the mAbs. Approximately 1×10^5 CHO cells that stably expressed EBV gp350 were incubated for 2 hours with serially diluted ([…]) unlabeled competitor mAbs and non-specific anti-KSHV gH/gL 54A1 mAb. After being washed with PBS, the cells were incubated for 2 hours in the presence of 1 μg/ml biotinylated mAbs. To determine maximum binding, cells in which the biotinylated mAb was added in the absence of unlabeled mAbs were included in the assay. Cells were washed with PBS, followed by incubation for 1 hour with anti-biotin AF488 at a dilution of 1:500. After the final wash in PBS, cells were resuspended in 1% paraformaldehyde and analyzed by flow cytometry as described above. Percentage of inhibition was calculated as: 100−[(% fluorescent cells with competitor mAb/% fluorescent cells without competitor mAb)×100]. The complete prevention of binding of a biotinylated mAb by its unlabeled counterpart was used as a validation of the assay, as previously described (84).
At least seven unique CD21 binding epitopes on EBV gp350 have been predicted (Table 3).

The target of test [3] is T4, gp350 protein on gp350 expressing CHO cells (Epstein-Barr virus, UniProt P03200).
T4 construct: stably co-transfected with full-length pCAGGS-gp350/220 and pCI-puro vector; expressed in transfected cells; host or cells: CHO cells
Kind of test: Flow cytometry of CHO cells stably expressing EBV gp350. Type of test: binding. The settings on record: concluded from flow cytometry and immunoblot. The method, then:
To assess the ability of purified anti-gp350 mAb to detect surface expression of EBV gp350 protein by flow cytometry, CHO cells that stably express EBV gp350 were harvested and stained with purified anti-gp350 (10 μg/ml), followed by AF488 goat anti-mouse IgG secondary antibody. Flow cytometric analysis was performed on a C-6 FC (BD Biosciences) and data was analyzed using FlowJo Cytometry Analysis software (FlowJo, LLC) as described (47). All the experiments were independently repeated three times.
These novel antibodies were analyzed by flow cytometric analysis for surface expression of gp350 protein on 10^6 CHO cells transfected with 1 μg of pCAGGS-gp350. gp350 expressing cells were resuspended in PBS, stained with anti-gp350 mAb, which detects the gp350 ED, followed by secondary Ab goat anti-mouse conjugated to AF488. Additionally, western blot analysis was conducted on untransfected and pCAGGS-gp350 transfected CHO lysate. Anti-gp350 mAb 72A1 was used as a positive control (1:100) and anti-gp350 hybridoma clone supernatants were used at 1:50, and anti-mouse secondary antibody was used at 1:2000.
Flow cytometric analysis of gp350 and gH/gL specificity was performed. CHO wild type cells and gp350 or gH/gL-expressing CHO cells were stained with primary antibodies, followed by secondary goat anti-mouse or anti-human conjugated to AF488. Unstained cells and cells stained with secondary goat anti-mouse or anti-human conjugated to AF488 alone, were used as negative controls.

Test [4] has as its system EBV-eGFP infection of Raji cells. Kind of test: EBV neutralization assay in Raji cells. The class given is cell-based, Epstein-Barr virus. The method, then: EBV neutralization assay was performed in Raji cells as previously described (47). Briefly, purified individual anti-gp350 mAbs were incubated with purified AGS-EBV-eGFP (titer calculated to infect at least 8% of HEK293 cells seeded in 100 μl of serum-free DMEM) for 2 hours at 37° C. To represent EBV infection of B cells, the pre-incubated anti-gp350 mAbs/AGS-EBV-eGFP were used to infect 5×10^5 Raji cells seeded in a 96-well plate for 2 hours at 37° C. Neutralizing 72A1 and non-neutralizing 2L10 anti-gp350 mAbs served as positive and negative controls, respectively. Infected cells were washed three times with PBS to remove any unbound viruses and antibodies. Washed, infected cells were incubated in 96-well plates at 37° C. for 48 hours post-infection and the number of eGFP+ (infected) cells was determined using flow cytometry. All dilutions were performed in quintuplicate and the assays were repeated three times. Antibody EBV neutralization activity was calculated as: % neutralization=(EBValone−EBVmAb)/(EBValone)×100.
However, this antibody was recently reported to be a mixture of both functional and non-functional antibodies (50). […] The percentage of eGFP+ cells (percent infection) was determined using flow cytometry as described (47). The nAbs 72A1 and E1D1 were used as positive controls, whereas the anti-gp350 non-neutralizing mAb 2L10 and KSHV gH/gL mAb 54A1 were used as negative controls. Because HB4, HB13, HB15, HB16, HB19, HB21, and HB23 were confirmed to be polyclonal based on isotyping and/or sequence data, they were eliminated from further consideration in the neutralization assay. HB18 was not used in neutralization experiments because it was identical to HB8.
The purified eGFP-tagged-EBV was titered in Raji cells to determine percent EBV infection using a range of volumes (50-250 μl) (FIG. 5A). Then initial neutralization of EBV was conducted in Raji cells using purified mAbs at various concentrations (12.5, 25, 50, and 100 μg/ml).
EBV-eGFP+ cells were enumerated using flow cytometry.

Two molecules from US12012446B2, “Epstein-Barr virus antibodies and uses thereof” (priority 2017, dated 2024) can be followed below.

T4 sequence (P03200 whole entry): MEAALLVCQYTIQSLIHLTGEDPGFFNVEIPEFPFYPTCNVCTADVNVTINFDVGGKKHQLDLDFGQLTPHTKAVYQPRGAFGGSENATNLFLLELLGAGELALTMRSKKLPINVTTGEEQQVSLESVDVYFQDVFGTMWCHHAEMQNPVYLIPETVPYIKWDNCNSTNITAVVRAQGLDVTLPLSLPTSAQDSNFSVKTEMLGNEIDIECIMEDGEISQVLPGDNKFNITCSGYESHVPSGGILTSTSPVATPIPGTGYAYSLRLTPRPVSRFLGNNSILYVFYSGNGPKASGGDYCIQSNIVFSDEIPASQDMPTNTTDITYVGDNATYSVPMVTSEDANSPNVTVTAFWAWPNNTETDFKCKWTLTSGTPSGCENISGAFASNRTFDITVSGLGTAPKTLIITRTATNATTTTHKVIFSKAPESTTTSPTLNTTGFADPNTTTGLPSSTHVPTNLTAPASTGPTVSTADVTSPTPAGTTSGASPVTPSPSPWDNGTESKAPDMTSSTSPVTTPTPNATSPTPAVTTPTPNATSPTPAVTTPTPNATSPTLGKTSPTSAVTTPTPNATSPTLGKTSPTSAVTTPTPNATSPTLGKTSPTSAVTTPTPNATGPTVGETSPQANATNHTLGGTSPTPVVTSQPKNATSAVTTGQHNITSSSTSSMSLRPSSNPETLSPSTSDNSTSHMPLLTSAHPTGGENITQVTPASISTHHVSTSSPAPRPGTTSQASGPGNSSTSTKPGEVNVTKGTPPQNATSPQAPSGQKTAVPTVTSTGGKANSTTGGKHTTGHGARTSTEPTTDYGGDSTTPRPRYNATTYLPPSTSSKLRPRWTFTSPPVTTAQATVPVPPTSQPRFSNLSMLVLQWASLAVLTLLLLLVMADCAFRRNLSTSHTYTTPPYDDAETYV
T3 sequence (P03200 whole entry): as above
T2 sequence (P03200 4-863): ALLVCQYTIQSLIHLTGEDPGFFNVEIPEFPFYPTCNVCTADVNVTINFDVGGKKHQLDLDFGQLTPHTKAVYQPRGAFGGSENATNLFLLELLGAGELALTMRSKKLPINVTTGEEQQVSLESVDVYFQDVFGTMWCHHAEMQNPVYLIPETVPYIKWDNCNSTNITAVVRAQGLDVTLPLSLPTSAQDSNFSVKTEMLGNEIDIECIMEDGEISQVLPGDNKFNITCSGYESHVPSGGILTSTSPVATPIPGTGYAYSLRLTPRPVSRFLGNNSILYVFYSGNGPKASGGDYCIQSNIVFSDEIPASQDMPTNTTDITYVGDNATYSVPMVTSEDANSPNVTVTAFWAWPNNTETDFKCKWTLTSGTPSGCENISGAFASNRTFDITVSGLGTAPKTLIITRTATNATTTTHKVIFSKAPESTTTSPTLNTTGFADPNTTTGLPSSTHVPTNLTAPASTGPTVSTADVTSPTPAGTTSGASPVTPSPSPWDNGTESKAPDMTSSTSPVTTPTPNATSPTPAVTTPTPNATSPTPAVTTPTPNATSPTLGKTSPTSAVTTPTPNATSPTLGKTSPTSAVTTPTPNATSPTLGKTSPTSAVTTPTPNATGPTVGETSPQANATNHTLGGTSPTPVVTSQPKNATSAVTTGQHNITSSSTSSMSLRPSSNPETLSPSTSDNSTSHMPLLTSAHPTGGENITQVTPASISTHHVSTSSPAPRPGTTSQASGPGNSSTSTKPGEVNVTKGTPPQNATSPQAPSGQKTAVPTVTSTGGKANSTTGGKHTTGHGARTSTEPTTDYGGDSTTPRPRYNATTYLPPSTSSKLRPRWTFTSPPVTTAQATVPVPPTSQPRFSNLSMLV

B1: humanized E1D1: humanized anti-EBV gH/gL antibody E1D1; SEQ ID NOs: 185 and 186 (antibody, V domains shown)
VH: EVQLVESGGGLVQPGGSLRLSCAASGYTFTDYVISWVRQSPGKGLEWIGEIYPESGNTYYADSVKGRATLSADKSKNTAYLQMNSLRAEDTAIYFCAEGYAMDFWGQGTLVTVSS
VL: DIQMTQSPILLSASVGDRVTITCRSSQSLLHSNGNTYLHWYQQRTNGSPRLLIYKVSNRFSGVPSRFSGSGSGTDFTLTISSLQPEDEADYFCSQSIHVPRTFGAGTKVEIKR
On to B1, for which the “binding specificity to EBV gH/gL by flow cytometry” value in the test with EBV gH/gL is “did not affect its binding specificity to EBV gH/gL”.

B2: HB17: murine anti-EBV gp350 mAb, IgG2b κ; SEQ ID NO: 126 / 127; non-nAb (antibody, V domains shown)
VH: AELVIPGASVKVSCKASGYTFTSYWIHWVKQWPGQGLEWIGEINPNNGHTNYNEKFKSKATLTVDKSSSTAYMQLSSLTSEDSAVYYCARNLFYYSRPDYWGQGTSVTVSSAKTTPPSVYPLAPGCGDTTGSSVTLG
VL: SSLSASLGDRVTISCRASQDIGNYLNWYQQKPDGTIKLLIYYTSRLHSGVPSRFSGSGSGTDYSLTISNLEEEDIATYFCQQGNTLPPTFGGGTKLEIKRADAAPTV
modifications: heavy chain mAb HB17; light chain mAb HB17
notes: murine anti-EBV gp350 mAb, IgG2b κ; non-nAb
Take B2: in test [1], the “ELISA binding to purified EBV gp350/220” value is given as “+”. For the same molecule, the “competitive binding versus m72A1 and h72A1 (in words)” value in test [2] is “little to no competitive binding”. The “type of gp350 epitope recognized (linear / conformational)” value in test [3] is “recognized both linear and conformational epitopes”. Besides, the “blocking of EBV infection of Raji cells (in words)” value in test [4] (protein G and size-exclusion chromatography-purified mAbs, 12.5-100 μg/ml) is “Neither HB17, HB22, nor 54A1 blocked EBV infection”. Further, the “neutralization of EBV in Raji cells (in words)” value in test [4] (spin-column purified mAbs, 12.5, 25, 50 and 100 μg/ml) is listed as “failed to neutralize EBV infection”.
